According to patent US20260234116A1, “CYTOTOXIC EPOXYKETONE COMPOUNDS, PRECURSORS, COMPOSITIONS, AND METHODS OF USE” (Memorial Sloan-Kettering Cancer Center, priority 2023, published 2026):
Blank lines part the entries; values can stand above or below the molecule they belong to.

Columns and labels:
EpnF [1] = target: T1, EpnF (Streptomyces hygroscopicus, UniProt V5RMU9); experiment: Enzyme kinetic analysis by SPE-MS/MS assay; type: biochemical; details: for efficiency of EpnF-catalyzed conversion compared to parent substrate 11a (in words): quantitative SPE-MS/MS assay
Procedure: (§1) SPE-MS/MS analyses were carried out on an Agilent RapidFire 365 High-Throughput Mass Spectrometry System with 6495 triple quadrupole mass spectrometer. Determination of initial velocity: EpnF stock at 100 μM was diluted 10-fold in EpnF Buffer to a 10 μM working solution, which was further diluted to 8 concentrations (10-0.005 μM) in EpnF Buffer (intermediate volume 1350 μL, concentrations calculated for 1500 μL theoretical final volume corresponding to addition of substrate solutions below). The 8 EpnF enzyme dilutions were aliquoted (90 μL) into the corresponding 8 tubes of PCR tube strips (12 strips, one per time point; Thermo Scientific, AB-2000). The β-ketoacid 11 (20 mM in EtOH) was diluted to 10 μM in EpnF Buffer, then 10 μL of this solution was added to each of the tubes (1 μM final concentration, 100 μL final volume) to initiate the reaction. Samples were incubated in a heated shaker at 37° C. and 225 rpm for up to 120 min, and one tube strip was removed at each time point. Each tube was quenched with 5% formic acid in EpnF Buffer (100 μL), pipetted vigorously, and flash frozen on dry ice. Samples were thawed then centrifuged to precipitate protein and transferred to a conical-bottom 96-well plate (Thermo Scientific/Nunc, 249944) for SPE-MS/MS analysis. Measurement of Km and Vmax: Using the data from the initial velocity experiments above, an appropriate EpnF enzyme concentration was selected for each β-ketoacid 11 at which the rate of conversion to the epoxyketone 12 remained linear at 10 min (0.50 μM for 11n and 0.05 μM for all other substrates). Each substrate (20 mM in EtOH) was diluted to 1 mM in EpnF Buffer, then diluted to 8 concentrations (100-0.5 μM) in EpnF Buffer (intermediate volume 1350 μL, concentrations calculated for 1500 μL theoretical volume corresponding to addition of enzyme solutions below). The 8 substrate dilutions were aliquoted (90 μL) into the corresponding 8 tubes of PCR tube strips (12 strips, one per time point; Thermo Scientific, AB-2000). The EpnF enzyme stock solution was diluted in EpnF Buffer to the appropriate concentration for each substrate, then 10 μL of this solution was added to each of the tubes (100 μL final volume) to initiate the reaction. For the 0-min time point, 5% formic acid in EpnF Buffer was added to the β-ketoacid substrate before addition of the enzyme. Samples were incubated in a heated shaker at 37° C. and 225 rpm for up to 10 min, and one tube strip was removed at each time point. Each tube was quenched by addition of 5% formic acid in EpnF Buffer (100 μL), pipetted vigorously, and flash frozen on dry ice. Samples were thawed then centrifuged to precipitate proteins and the supernatants were transferred to a conical-bottom 96-well plate (Thermo Scientific/Nunc, 249944) for SPE-MS/MS analysis. Km and Vmax values for each substrate were calculated by Michaelis-Menten analysis. To obtain a quantitative assessment of EpnF substrate specificity, we developed a kinetic assay (10 min) using SPE-MS/MS (solid-phase extraction/triple quadrupole mass spectrometry; Agilent RapidFire 365 with 6495 MS) to enable direct detection of both substrates and products.

EpnF [2] = target: T1, EpnF; experiment: Semiquantitative epoxide capture assay (EpnF-catalyzed epoxyketone formation); type: biochemical; details: 1 μM EpnF, 240 μM β-ketoacid substrate (FIG. 2)
Procedure: Recombinant EpnF was diluted to 1 μM in 180 μL EpnF Buffer in an 1.5 mL Eppendorf tube. The β-ketoacid 11 was added at various concentrations to a total reaction volume of 200 μL. The mixture was incubated in a heated shaker at 37° C. and 225 rpm for 1 h. The reaction mixture (30 μL×3 technical replicates) was transferred to a white, opaque 96-well plate (PerkinElmer, OptiPlate-96). Each plate also contained 30 μL×3 technical replicates of EpnF Buffer as a negative control. To each well, 15 μL of 125 mM nicotinamide in EpnF Buffer was added and mixed by pipetting. The plate was sealed with an adhesive foil cover (VWR Adhesive Foil for Microplates) and heated in an oven at 80° C. for 1 h. The plate was cooled to rt and 25 μL of 15% (v/v) acetophenone in EtOH and 25 μL of 1 M potassium hydroxide in EtOH were added to each well, then mixed by pipetting. The plate was cooled on ice for 10 min, then 125 μL formic acid was added to each well. The plate was resealed and heated in an oven at 100° C. for 5 min. The plate was cooled on ice for 5-10 min, then analyzed (λex 370 nm, λem 430 nm) on a fluorescence plate reader (Molecular Devices Spectramax M3).
We adapted a reported epoxide capture assay [Nelis, H. J. C. F.; Sinsheimer, J. E. (1981) A sensitive fluorimetric procedure for the determination of aliphatic epoxides under physiological conditions. Anal. Biochem. 115, 151-157.] to 96-well plate format to detect formation of the epoxyketone products semiquantitatively. Each β-ketoacid substrate 11 was incubated with recombinant, purified EpnF (1 h), then reacted with nicotinamide and acetophenone (1 h) to form a fluorescent 1,6-naphthyridinone 24. The fluorescent signals were normalized to that resulting from the known substrate β-ketoacid 11n as a positive control [Zabala, D.; Cartwright, J. W.; Roberts, D. M.; Law, B. J. C.; Song, L.; Samborskyy, M.; Leadlay, P. F.; Micklefield, J.; Challis, G. L. (2016) A flavin-dependent decarboxylase-dehydrogenase-monooxygenase assembles the warhead of α,β-epoxyketone proteasome inhibitors. J. Am. Chem. Soc. 138, 4342-4345.].

[3] = during isolation and characterization; cited from earlier work
[4] = substrate: CC(C)CCCCC(=O)N[C@@H](CO)C(=O)N[C@@H](CC(C)C)C(=O)C(C)(C)C(=O)O; experiment: Enzyme kinetic analysis by SPE-MS/MS assay; type: biochemical; details: other: 0.05 μM EpnF; 37.0 °C
Procedure: as §1

[5] = substrate: CCCC(=O)N[C@@H](CO)C(=O)N[C@@H](CC(C)C)C(=O)C(C)(C)C(=O)O; experiment: Enzyme kinetic analysis by SPE-MS/MS assay; type: biochemical; details: other: 0.50 μM EpnF; 37.0 °C
Procedure: as §1

[6] = substrate: CC(C)CCCCC(=O)N[C@@H](C)C(=O)N[C@@H](CC(C)C)C(=O)C(C)(C)C(=O)O; experiment: Enzyme kinetic analysis by SPE-MS/MS assay; type: biochemical; details: other: 0.05 μM EpnF; 37.0 °C
Procedure: as §1

[7] = substrate: CC(C)CCCCC(=O)N[C@H](C(=O)N[C@@H](CC(C)C)C(=O)C(C)(C)C(=O)O)C(C)O; experiment: Enzyme kinetic analysis by SPE-MS/MS assay; type: biochemical; details: other: 0.05 μM EpnF; 37.0 °C
Procedure: as §1

[8] = substrate: C=C(C)C[C@H](NC(=O)[C@H](CO)NC(=O)CCCCC(C)C)C(=O)C(C)(C)C(=O)O; experiment: Enzyme kinetic analysis by SPE-MS/MS assay; type: biochemical; details: other: 0.05 μM EpnF; 37.0 °C
Procedure: as §1

[9] = substrate: CC(C)C[C@H](NC(=O)[C@H](CO)NC(=O)c1ccccc1)C(=O)C(C)(C)C(=O)O; experiment: Enzyme kinetic analysis by SPE-MS/MS assay; type: biochemical; details: other: 0.05 μM EpnF; 37.0 °C
Procedure: as §1

efficiency of EpnF-catalyzed conversion compared to parent substrate 11a (in words) (EpnF [1]): slightly lower efficiency
Molecule: CC(C)CCCCC(=O)N[C@H](C(=O)N[C@@H](CC(C)C)C(=O)C(C)(C)C(=O)O)C(C)O (stereo partly drawn) [Compound 11l, (4S)-4-[(2S)-3-Hydroxy-2-(6-methylheptanamido)butanamido]-2,2,6-trimethyl-3-oxoheptanoic acid]
EpnF-catalyzed conversion to epoxyketone (epoxide capture) (EpnF [2]): tolerated

solubility (kinetic parameters could not be determined) (EpnF [1]; EpnF Buffer): solubility limitations | EpnF-catalyzed conversion to epoxyketone (epoxide capture) (EpnF [2]): permitted
Molecule: CCCCCCCCCC(=O)N[C@@H](CO)C(=O)N[C@@H](CC(C)C)C(=O)C(C)(C)C(=O)O [Compound 11q, (4S)-4-[(2S)-2-Decanamido-3-hydroxypropanamido]-2,2,6-trimethyl-3-oxoheptanoic acid]

Continued, molecule first:

Molecule: CC(C)CCCCC(=O)N[C@H](C(=O)N[C@@H](CC(C)C)C(=O)C(C)(C)C(=O)O)C(C)C [Compound 11k, (4S)-2,2,6-Trimethyl-4-[(2S)-3-methyl-2-(6-methylheptanamido)butanamido]-3-oxoheptanoic acid]
efficiency of EpnF-catalyzed conversion compared to parent substrate 11a (in words) (EpnF [1]): low conversion | EpnF-catalyzed conversion to epoxyketone (epoxide capture) (EpnF [2]): tolerated to a lesser degree

Molecule: CCCC(=O)N[C@@H](CO)C(=O)N[C@@H](CC(C)C)C(=O)C(C)(C)C(=O)O [Compound 11n, (4S)-4-((S)-2-Butyramido-3-hydroxypropanamido)-2,2,6-trimethyl-3-oxoheptanoic acid]
EpnF-catalyzed conversion to epoxyketone (epoxide capture) (EpnF [2]): permitted | spontaneous decarboxylation [3]: can undergo spontaneous decarboxylation

Molecule: CC(C)C[C@H](NC(=O)[C@H](CO)NC(=O)c1ccccc1)C(=O)C(C)(C)C(=O)O [Compound 11o, (4S)-4-[(2S)-3-Hydroxy-2-(phenylformamido)propanamido]-2,2,6-trimethyl-3-oxoheptanoic acid]
efficiency of EpnF-catalyzed conversion compared to parent substrate 11a (in words) (EpnF [1]): slightly lower efficiency | EpnF-catalyzed conversion to epoxyketone (epoxide capture) (EpnF [2]): also tolerated

B1: EpnF (Streptomyces hygroscopicus) (protein)
chain: MSDSKSVNLFHRHGVPSFLEGIYQGRFEWDMISNFVAQDSADEKAGDAAVERLTDILRNRVNPTAVDATRELPEGLLEELRRTGFLNLQDSPDIGGLGLSSYNTFRVVQAAASWSVPVALVLGIQTAVGSGTYLRALPPGELHSYVEQRLLDGIISGSADTEPAGASNSARRTRAVPTDDGEAFLLTGEKIHIGNGPIADIVTVSAMLDEDGQDRPRLFFVETSDPGFSIRSRHEFMGVKGFPNAALVLDGVRVPRERMIVEVDPDTEVRITAELTMAVVRGRLHLITAPSLAISKLCLEWSRNFVNRRTIDGRPLGAREEIQHMVSSTMADVFAIQALAEWSLLPADQPDLGLNVAFEQNVTKAISAEICWRAADRTMDLLAGEGFETAPSKARRGAPALPLERFYRDARNLRISGGVSFLLQFWAARMSQFTYYGPDHAGQSAALSQDGGQQPCTDGLDPLNADHLRFAAAETRRLGAACQKFAADHPAPGLYEHQHRLIAFSRIADEILTMSVVLAKAARLHHEGRTEAQDLAAIYCAHARDRLAALWRQAEPVTAGPDHAAVSDAWLSGDDTYASLITGVITDVPPTADTHPGKR
Km [4]: 11.6 µM | kcat [4]: 0.071 s⁻¹ | kcat/Km [4]: 6120 M⁻¹ s⁻¹ | Km [5]: 23.1 µM | kcat [5]: 0.0067 s⁻¹ | kcat/Km [5]: 290 M⁻¹ s⁻¹ | Km [6]: 4.70 µM | kcat [6]: 0.025 s⁻¹ | kcat/Km [6]: 5320 M⁻¹ s⁻¹ | Km [7]: 13.3 µM | kcat [7]: 0.016 s⁻¹ | kcat/Km [7]: 1200 M⁻¹ s⁻¹ | Km [8]: 17.3 µM | kcat [8]: 0.114 s⁻¹ | kcat/Km [8]: 6580 M⁻¹ s⁻¹ | Km [9]: 6.13 µM | kcat [9]: 0.0125 s⁻¹ | kcat/Km [9]: 1880 M⁻¹ s⁻¹
